Results reported in the Human Domainome abundance scans (Beltran et al. 2025).
± gives the uncertainty stated by the source.

B1: Proto-oncogene vav, residues 782 to 842; numbered along this chain, P15498 (parent)
chain: KYFGTAKARYDFCARDRSELSLKEGDIIKILNKKGQQGWWRGEIYGRVGWFPANYVEEDYS

Variants of: B1
Test: abundance fitness (aPCA) (normalised: wild type 0, dead -1); higher = more abundant; growth selection in yeast, the domain comes from the species named
Settings: Homo sapiens

| Variant | abundance fitness |
| --- | --- |
| KYFGTAKARYDFCARDRSELSLKEGDIIKILNKKGQQGWWRGEIYGRVGWFCANYVEEDYS | -1.02 ± 0.34 |
| KYFGTAKARYDFCARDRSELSLKEGDIIKILNKKGQQGWWRGEIYGRVGWFFANYVEEDYS | -0.957 ± 0.43 |
| KYFGTAKARYDFCARDRSELSLKEGDIIKILNKKGQQGWWRGEIYGRVGWFYANYVEEDYS | -1.01 ± 0.34 |
| KYFGTAKARYDFCARDRSELSLKEGDIIKILNKKGQQGWWRGEIYGRVGWFWANYVEEDYS | -0.943 ± 0.18 |
| KYFGTAKARYDFCARDRSELSLKEGDIIKILNKKGQQGWWRGEIYGRVGWFLANYVEEDYS | -0.89 ± 0.12 |
| KYFGTAKARYDFCARDRSELSLKEGDIIKILNKKGQQGWWRGEIYGRVGWFKANYVEEDYS | -0.498 ± 0.21 |
| KYFGTAKARYDFCARDRSELSLKEGDIIKILNKKGQQGWWRGEIYGRVGWFSANYVEEDYS | -0.95 ± 0.15 |
| KYFGTAKARYDFCARDRSELSLKEGDIIKILNKKGQQGWWRGEIYGRVGWFPDNYVEEDYS | -0.641 ± 0.16 |
| KYFGTAKARYDFCARDRSELSLKEGDIIKILNKKGQQGWWRGEIYGRVGWFPQNYVEEDYS | -0.243 ± 0.13 |
| KYFGTAKARYDFCARDRSELSLKEGDIIKILNKKGQQGWWRGEIYGRVGWFPTNYVEEDYS | -0.227 ± 0.08 |
| KYFGTAKARYDFCARDRSELSLKEGDIIKILNKKGQQGWWRGEIYGRVGWFPWNYVEEDYS | -0.451 ± 0.079 |
| KYFGTAKARYDFCARDRSELSLKEGDIIKILNKKGQQGWWRGEIYGRVGWFPSNYVEEDYS | -0.082 ± 0.063 |
| KYFGTAKARYDFCARDRSELSLKEGDIIKILNKKGQQGWWRGEIYGRVGWFPPNYVEEDYS | -0.226 ± 0.096 |
| KYFGTAKARYDFCARDRSELSLKEGDIIKILNKKGQQGWWRGEIYGRVGWFPHNYVEEDYS | -0.011 ± 0.18 |
| KYFGTAKARYDFCARDRSELSLKEGDIIKILNKKGQQGWWRGEIYGRVGWFPKNYVEEDYS | -0.243 ± 0.1 |
| KYFGTAKARYDFCARDRSELSLKEGDIIKILNKKGQQGWWRGEIYGRVGWFPNNYVEEDYS | -0.444 ± 0.14 |
| KYFGTAKARYDFCARDRSELSLKEGDIIKILNKKGQQGWWRGEIYGRVGWFPINYVEEDYS | -0.314 ± 0.15 |
| KYFGTAKARYDFCARDRSELSLKEGDIIKILNKKGQQGWWRGEIYGRVGWFPFNYVEEDYS | -0.472 ± 0.13 |
| KYFGTAKARYDFCARDRSELSLKEGDIIKILNKKGQQGWWRGEIYGRVGWFPVNYVEEDYS | -0.301 ± 0.061 |
| KYFGTAKARYDFCARDRSELSLKEGDIIKILNKKGQQGWWRGEIYGRVGWFPGNYVEEDYS | -0.4 ± 0.056 |
| KYFGTAKARYDFCARDRSELSLKEGDIIKILNKKGQQGWWRGEIYGRVGWFPRNYVEEDYS | -0.151 ± 0.062 |
| KYFGTAKARYDFCARDRSELSLKEGDIIKILNKKGQQGWWRGEIYGRVGWFPMNYVEEDYS | -0.178 ± 0.11 |

| Variant | abundance fitness |
| --- | --- |
| KYFGTAKARYDFCARDRSELSLKEGDIIKILNKKGQQGWWRGEIYGRVGWFPYNYVEEDYS | -0.341 ± 0.19 |
| KYFGTAKARYDFCARDRSELSLKEGDIIKILNKKGQQGWWRGEIYGRVGWFPLNYVEEDYS | -0.505 ± 0.064 |
| KYFGTAKARYDFCARDRSELSLKEGDIIKILNKKGQQGWWRGEIYGRVGWFPCNYVEEDYS | -0.078 ± 0.1 |
| KYFGTAKARYDFCARDRSELSLKEGDIIKILNKKGQQGWWRGEIYGRVGWFPENYVEEDYS | -0.208 ± 0.099 |
| KYFGTAKARYDFCARDRSELSLKEGDIIKILNKKGQQGWWRGEIYGRVGWFPADYVEEDYS | 0.064 ± 0.087 |
| KYFGTAKARYDFCARDRSELSLKEGDIIKILNKKGQQGWWRGEIYGRVGWFPAMYVEEDYS | -0.214 ± 0.097 |
| KYFGTAKARYDFCARDRSELSLKEGDIIKILNKKGQQGWWRGEIYGRVGWFPAHYVEEDYS | -0.185 ± 0.15 |
| KYFGTAKARYDFCARDRSELSLKEGDIIKILNKKGQQGWWRGEIYGRVGWFPASYVEEDYS | -0.054 ± 0.053 |
| KYFGTAKARYDFCARDRSELSLKEGDIIKILNKKGQQGWWRGEIYGRVGWFPALYVEEDYS | -0.219 ± 0.065 |
| KYFGTAKARYDFCARDRSELSLKEGDIIKILNKKGQQGWWRGEIYGRVGWFPAAYVEEDYS | 0.051 ± 0.074 |
| KYFGTAKARYDFCARDRSELSLKEGDIIKILNKKGQQGWWRGEIYGRVGWFPAGYVEEDYS | -0.065 ± 0.062 |
| KYFGTAKARYDFCARDRSELSLKEGDIIKILNKKGQQGWWRGEIYGRVGWFPAKYVEEDYS | -0.092 ± 0.11 |
| KYFGTAKARYDFCARDRSELSLKEGDIIKILNKKGQQGWWRGEIYGRVGWFPAEYVEEDYS | 0.05 ± 0.086 |
| KYFGTAKARYDFCARDRSELSLKEGDIIKILNKKGQQGWWRGEIYGRVGWFPAWYVEEDYS | -0.091 ± 0.096 |
| KYFGTAKARYDFCARDRSELSLKEGDIIKILNKKGQQGWWRGEIYGRVGWFPARYVEEDYS | 0.055 ± 0.07 |
| KYFGTAKARYDFCARDRSELSLKEGDIIKILNKKGQQGWWRGEIYGRVGWFPAPYVEEDYS | -0.29 ± 0.089 |
| KYFGTAKARYDFCARDRSELSLKEGDIIKILNKKGQQGWWRGEIYGRVGWFPAFYVEEDYS | -0.406 ± 0.12 |
| KYFGTAKARYDFCARDRSELSLKEGDIIKILNKKGQQGWWRGEIYGRVGWFPAVYVEEDYS | -0.098 ± 0.054 |
| KYFGTAKARYDFCARDRSELSLKEGDIIKILNKKGQQGWWRGEIYGRVGWFPATYVEEDYS | -0.112 ± 0.094 |
| KYFGTAKARYDFCARDRSELSLKEGDIIKILNKKGQQGWWRGEIYGRVGWFPAQYVEEDYS | -0.201 ± 0.12 |
| KYFGTAKARYDFCARDRSELSLKEGDIIKILNKKGQQGWWRGEIYGRVGWFPACYVEEDYS | -0.017 ± 0.12 |
| KYFGTAKARYDFCARDRSELSLKEGDIIKILNKKGQQGWWRGEIYGRVGWFPAIYVEEDYS | -0.376 ± 0.13 |
